Laboratory results: article PMC4264339 (Virology Journal, 2014)

Assays:
[1] = molecular target: HA protein on FJ13 virus (A/duck/Fujian/13/2002, H5N1), virus particles (Influenza A virus A/duck/Fujian/13/2002 …, UniProt Q9Q0U6, strain); assay: ELISA; details: one partner purified
[2] = molecular target: HA protein of FJ13 virus in infected MDCK cells (Influenza A virus A/duck/Fujian/13/2002 …, UniProt Q9Q0U6, strain); assay: immunostaining of cells or tissue; details: partners not purified

B1: scFv3 secreted from DF-1 cells, c-Myc tagged (scFv, V domains shown)
VH: AVTLDESGGGLQTPGGALSLVCKASGFTFSSYDMYWVRQAPGKGLEFVAIINSGGSTSYYASAVKGRATISRDNGQSTVRLQLNNLRADDTGTYYCAKGPSAIDAWGHGTEVIVSS
VL: ALTQPSSVSANPGETVKITCSGGSSTYGYSWHQQKSPGSAPVTVVYSNDERPSDIPSRFSGSKSGSTGTLTITGVQADDEAIYYCGTYGSTDSGYVGIFGARTTLTVL
binding result [1]: binds | binding result [2]: binds
